Test results: paper PMC6555819, “Comprehensive study of nuclear receptor DNA binding provides a revised framework for understanding receptor specificity”

Legend:
RARb:RXRa = RARb:RXRa (Homo sapiens, UniProt P10826;P19793 full;full); assay: no ligand; PBM; 270 nM : 90 nM RXRa; PBS pH 7.4, 2% milk, 0.02% Triton X-100, 1 mM DTT, BSA, 0.4 mg/ml salmon testes DNA; conditions: tags: His kept;His cleaved; copies: 1;1; label: surface-attached array probe
Outline: (§1)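 Binding buffer was PBS pH 7.4 with 2% milk, 0.02% Triton X-100, 1 mM DTT, 0.2 mg/mL BSA and 0.4 mg/ml salmon testes DNA. In it, ligand-free nuclear receptor dimers were incubated 1 h on custom Agilent 4×180K protein-binding microarrays carrying double-stranded probes. Antibodies against each partner (one per run) detected binding, and z-scores were calculated against random background probes after regression normalization of scanned fluorescence.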

PXR:RXRa = PXR:RXRa (Homo sapiens, UniProt O75469;P19793 full;full); assay: as above; conditions: tags: His kept;His cleaved; copies: 1;1; label: surface-attached array probe
PXR:RXRa, sequence (O75469 whole entry, chain 1 of 2): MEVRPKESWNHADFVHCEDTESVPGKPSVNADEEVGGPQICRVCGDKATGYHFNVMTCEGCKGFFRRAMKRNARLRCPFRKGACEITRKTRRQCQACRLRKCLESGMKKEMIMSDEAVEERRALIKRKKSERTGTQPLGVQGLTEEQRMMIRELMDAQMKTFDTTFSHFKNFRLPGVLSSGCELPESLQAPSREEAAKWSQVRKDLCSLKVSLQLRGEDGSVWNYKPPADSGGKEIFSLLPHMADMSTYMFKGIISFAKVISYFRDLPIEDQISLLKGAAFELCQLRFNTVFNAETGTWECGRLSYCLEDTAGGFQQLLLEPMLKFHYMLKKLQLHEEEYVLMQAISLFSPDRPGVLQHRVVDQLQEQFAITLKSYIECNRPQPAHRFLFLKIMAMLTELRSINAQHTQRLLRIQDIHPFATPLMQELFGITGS
PXR:RXRa, sequence (P19793 whole entry, chain 2 of 2): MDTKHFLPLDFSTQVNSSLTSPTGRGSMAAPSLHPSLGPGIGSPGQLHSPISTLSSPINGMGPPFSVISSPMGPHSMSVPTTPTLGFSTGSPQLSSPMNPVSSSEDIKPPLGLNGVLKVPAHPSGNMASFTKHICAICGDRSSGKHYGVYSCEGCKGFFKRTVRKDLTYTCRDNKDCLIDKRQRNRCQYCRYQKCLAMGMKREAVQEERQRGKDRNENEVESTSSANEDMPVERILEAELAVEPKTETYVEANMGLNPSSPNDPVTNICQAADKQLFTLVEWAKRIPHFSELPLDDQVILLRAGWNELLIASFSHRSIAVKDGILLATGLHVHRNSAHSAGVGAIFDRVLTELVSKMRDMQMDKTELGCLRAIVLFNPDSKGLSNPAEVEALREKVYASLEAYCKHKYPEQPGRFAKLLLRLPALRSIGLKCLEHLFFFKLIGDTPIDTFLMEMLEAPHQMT
Outline: as §1

FXR:RXRa = FXR:RXRa (Homo sapiens, UniProt Q96RI1;P19793 full;full); assay: as above; conditions: tags: His kept;His cleaved; copies: 1;1; label: surface-attached array probe
FXR:RXRa, sequence (Q96RI1 whole entry, chain 1 of 2): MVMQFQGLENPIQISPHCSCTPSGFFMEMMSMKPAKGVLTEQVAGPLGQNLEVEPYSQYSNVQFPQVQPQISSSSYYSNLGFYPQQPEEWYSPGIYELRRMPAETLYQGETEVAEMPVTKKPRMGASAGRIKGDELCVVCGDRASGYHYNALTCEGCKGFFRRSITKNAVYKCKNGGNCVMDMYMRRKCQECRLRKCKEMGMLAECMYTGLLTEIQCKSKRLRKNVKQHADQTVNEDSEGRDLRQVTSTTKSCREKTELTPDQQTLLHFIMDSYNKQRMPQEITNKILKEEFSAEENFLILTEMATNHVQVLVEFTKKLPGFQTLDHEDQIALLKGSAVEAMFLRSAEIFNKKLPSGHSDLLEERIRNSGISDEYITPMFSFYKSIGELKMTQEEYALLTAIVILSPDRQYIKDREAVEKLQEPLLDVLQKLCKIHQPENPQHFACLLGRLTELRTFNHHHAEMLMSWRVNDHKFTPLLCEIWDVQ
FXR:RXRa, sequence (P19793 whole entry, chain 2 of 2): as the sequence (P19793 whole entry, chain 2 of 2) above
Outline: as §1

VDR:RXRa = VDR:RXRa (Homo sapiens, UniProt P11473;P19793 full;full); assay: as above; conditions: tags: His kept;His cleaved; copies: 1;1; label: surface-attached array probe
VDR:RXRa, sequence (P11473 whole entry, chain 1 of 2): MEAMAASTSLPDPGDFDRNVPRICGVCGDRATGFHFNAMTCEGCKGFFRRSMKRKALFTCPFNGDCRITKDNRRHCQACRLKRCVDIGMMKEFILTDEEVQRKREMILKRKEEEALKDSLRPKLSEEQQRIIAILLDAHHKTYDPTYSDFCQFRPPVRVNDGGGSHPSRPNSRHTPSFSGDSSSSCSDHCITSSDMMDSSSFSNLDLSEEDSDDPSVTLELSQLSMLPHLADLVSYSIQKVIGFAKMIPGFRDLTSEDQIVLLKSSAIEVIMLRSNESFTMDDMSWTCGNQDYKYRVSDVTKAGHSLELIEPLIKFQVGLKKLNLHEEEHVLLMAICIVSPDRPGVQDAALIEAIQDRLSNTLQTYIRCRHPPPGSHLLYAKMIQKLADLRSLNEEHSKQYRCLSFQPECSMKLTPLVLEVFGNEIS
VDR:RXRa, sequence (P19793 whole entry, chain 2 of 2): as the sequence (P19793 whole entry, chain 2 of 2) above
Outline: as §1

RXRa = RXRa (Homo sapiens, UniProt P19793); assay: no ligand; PBM; 180 nM; PBS pH 7.4, 2% milk, 0.02% Triton X-100, 1 mM DTT, BSA, 0.4 mg/ml salmon testes DNA; conditions: tags: His cleaved; chain copies: 2; label: surface-attached array probe
RXRa, sequence (P19793 whole entry): as the sequence (P19793 whole entry, chain 2 of 2) above
RARg:RXRa = RARg:RXRa (Homo sapiens, UniProt P13631;P19793 full;full); assay: no ligand; PBM; 270 nM : 90 nM RXRa; PBS pH 7.4, 2% milk, 0.02% Triton X-100, 1 mM DTT, BSA, 0.4 mg/ml salmon testes DNA; conditions: tags: His kept;His cleaved; copies: 1;1; label: surface-attached array probe
RARg:RXRa, sequence (P13631 whole entry, chain 1 of 2): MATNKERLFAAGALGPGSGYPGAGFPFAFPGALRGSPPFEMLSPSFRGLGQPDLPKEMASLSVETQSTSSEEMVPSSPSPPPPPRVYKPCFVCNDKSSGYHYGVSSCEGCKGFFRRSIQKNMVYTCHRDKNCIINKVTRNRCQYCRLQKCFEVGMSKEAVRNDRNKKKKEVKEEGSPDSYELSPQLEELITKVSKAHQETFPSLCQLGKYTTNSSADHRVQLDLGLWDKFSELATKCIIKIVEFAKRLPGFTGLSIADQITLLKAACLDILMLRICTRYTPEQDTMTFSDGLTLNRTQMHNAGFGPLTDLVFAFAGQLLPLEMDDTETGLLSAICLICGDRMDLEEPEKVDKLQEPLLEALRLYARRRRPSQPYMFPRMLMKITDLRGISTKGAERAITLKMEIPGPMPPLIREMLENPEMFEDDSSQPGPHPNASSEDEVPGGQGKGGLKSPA
RARg:RXRa, sequence (P19793 whole entry, chain 2 of 2): as the sequence (P19793 whole entry, chain 2 of 2) above
Outline: as §1

PPARa:RXRa = PPARa:RXRa (Homo sapiens, UniProt Q07869;P19793 full;full); assay: as above; conditions: tags: GST kept;His cleaved; copies: 1;1; label: surface-attached array probe
PPARa:RXRa, sequence (Q07869 whole entry, chain 1 of 2): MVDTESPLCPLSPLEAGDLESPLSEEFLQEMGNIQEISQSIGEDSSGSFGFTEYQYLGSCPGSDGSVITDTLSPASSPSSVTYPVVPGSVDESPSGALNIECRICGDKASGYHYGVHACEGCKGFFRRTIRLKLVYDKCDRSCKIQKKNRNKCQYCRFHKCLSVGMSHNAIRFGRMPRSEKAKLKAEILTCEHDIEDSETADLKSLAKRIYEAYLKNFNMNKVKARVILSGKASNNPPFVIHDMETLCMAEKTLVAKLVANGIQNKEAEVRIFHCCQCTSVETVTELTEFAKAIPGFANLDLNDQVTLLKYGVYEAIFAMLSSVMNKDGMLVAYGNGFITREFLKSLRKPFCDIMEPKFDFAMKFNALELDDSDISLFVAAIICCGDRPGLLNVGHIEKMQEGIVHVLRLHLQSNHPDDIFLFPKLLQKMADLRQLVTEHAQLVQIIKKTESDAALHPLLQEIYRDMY
PPARa:RXRa, sequence (P19793 whole entry, chain 2 of 2): as the sequence (P19793 whole entry, chain 2 of 2) above
Outline: as §1

RARb:RXRa, sequence (P10826 whole entry, chain 1 of 2): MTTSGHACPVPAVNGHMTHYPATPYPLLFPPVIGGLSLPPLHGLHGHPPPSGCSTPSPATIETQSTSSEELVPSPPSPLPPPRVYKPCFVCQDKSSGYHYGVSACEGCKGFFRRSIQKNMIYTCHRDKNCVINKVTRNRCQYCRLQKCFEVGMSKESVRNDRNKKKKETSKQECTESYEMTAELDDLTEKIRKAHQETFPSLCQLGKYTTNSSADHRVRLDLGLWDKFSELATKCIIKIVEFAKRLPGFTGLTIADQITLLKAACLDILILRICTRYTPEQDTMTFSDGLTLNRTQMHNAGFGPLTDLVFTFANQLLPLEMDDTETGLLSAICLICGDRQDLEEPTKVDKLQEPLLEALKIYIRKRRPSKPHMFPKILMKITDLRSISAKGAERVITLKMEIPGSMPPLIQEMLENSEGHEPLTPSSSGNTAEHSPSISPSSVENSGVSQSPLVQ
RARb:RXRa, sequence (P19793 whole entry, chain 2 of 2): as the sequence (P19793 whole entry, chain 2 of 2) above

Binder	binding signal (PXR:RXRa)	binding signal (VDR:RXRa)	also measured
NRC3_random_hg19_219_o1 (dsDNA) DNA 1: GCTATAGCTCACAACCTCATACCAGGAAGGGCTCAGGCGATTGACAGCGTAGAATGAAGG DNA 2: CCTTCATTCTACGCTGTCAATCGCCTGAGCCCTTCCTGGTATGAGGTTGTGAGCTATAGC	-0.27 PBM z-score against 500 random probes		binding signal (RARb:RXRa): -0.28 PBM z-score against 500 random probes
NRC3_random_hg19_134_o1 (dsDNA) DNA 1: GCAGCTCCACTTCATGCCAGGCCTGGGCTAGAGGCTGCGATTGACAGCGTAGAATGAAGG DNA 2: CCTTCATTCTACGCTGTCAATCGCAGCCTCTAGCCCAGGCCTGGCATGAAGTGGAGCTGC	-0.78 PBM z-score against 500 random probes		binding signal (FXR:RXRa): -0.54 PBM z-score against 500 random probes
NRC3_wobSeed120_DR4_T13C_o1 (dsDNA) DNA 1: GCCCGAGTAGGTCACGAGGGGGCATTCAGTGCGAATGCGATTGACAGCGTAGAATGAAGG DNA 2: CCTTCATTCTACGCTGTCAATCGCATTCGCACTGAATGCCCCCTCGTGACCTACTCGGGC	6.39 PBM z-score against 500 random probes	7.01 PBM z-score against 500 random probes	
NRC3_wobSeed95_DR3_G22C_o1 (dsDNA) DNA 1: GCAGAACGAGGGCAATGAGTTCATAGCACGGGTGGCGCGATTGACAGCGTAGAATGAAGG DNA 2: CCTTCATTCTACGCTGTCAATCGCGCCACCCGTGCTATGAACTCATTGCCCTCGTTCTGC	7.08 PBM z-score against 500 random probes	8.01 PBM z-score against 500 random probes	
NRC3_wobSeed84_DR3_T8G_o1 (dsDNA) DNA 1: GCCCGACGGGGGCAGAAAGGTTACCATACCATCCGGGCGATTGACAGCGTAGAATGAAGG DNA 2: CCTTCATTCTACGCTGTCAATCGCCCGGATGGTATGGTAACCTTTCTGCCCCCGTCGGGC	3.49 PBM z-score against 500 random probes		binding signal (RARb:RXRa): 3.11 PBM z-score against 500 random probes
NRC3_random_hg19_432_o1 (dsDNA) DNA 1: GCATGTCAATGGTAGTTTGATGGGAATAGTATTGAGGCGATTGACAGCGTAGAATGAAGG DNA 2: CCTTCATTCTACGCTGTCAATCGCCTCAATACTATTCCCATCAAACTACCATTGACATGC	-0.12 PBM z-score against 500 random probes		binding signal (RXRa): 0.02 PBM z-score against 500 random probes
NRC3_wobSeed113_DR4_T13C_o1 (dsDNA) DNA 1: GCATATGTAGGTCAGCTGGGGTCATTCAGACTAGGCGCGATTGACAGCGTAGAATGAAGG DNA 2: CCTTCATTCTACGCTGTCAATCGCGCCTAGTCTGAATGACCCCAGCTGACCTACATATGC	7.5 PBM z-score against 500 random probes	7.24 PBM z-score against 500 random probes	
NRC3_random_hg19_401_o1 (dsDNA) DNA 1: GCTCTCCATCTTGAGTACCAGCCCTGTTCTTCCAGTGCGATTGACAGCGTAGAATGAAGG DNA 2: CCTTCATTCTACGCTGTCAATCGCACTGGAAGAACAGGGCTGGTACTCAAGATGGAGAGC	0.41 PBM z-score against 500 random probes		binding signal (RARg:RXRa): -0.32 PBM z-score against 500 random probes
NRC3_random_hg19_237_o1 (dsDNA) DNA 1: GCTGCAGAGAGGCCACCAGCCAGCCCAGACCCATGCGCGATTGACAGCGTAGAATGAAGG DNA 2: CCTTCATTCTACGCTGTCAATCGCGCATGGGTCTGGGCTGGCTGGTGGCCTCTCTGCAGC	-0.57 PBM z-score against 500 random probes		binding signal (RXRa): 0.12 PBM z-score against 500 random probes
NRC3_random_hg19_464_o1 (dsDNA) DNA 1: GCAGAACCTCATTGCTTATCGCACAGATGAGATGCGGCGATTGACAGCGTAGAATGAAGG DNA 2: CCTTCATTCTACGCTGTCAATCGCCGCATCTCATCTGTGCGATAAGCAATGAGGTTCTGC	-0.05 PBM z-score against 500 random probes		binding signal (RXRa): 0.3 PBM z-score against 500 random probes; binding signal (PPARa:RXRa): -0.25 PBM z-score against 500 random probes
NRC3_wobSeed85_DR3_C13A_o1 (dsDNA) DNA 1: GCCGTCCAAGGTAAGAGAGGTCAGTGAATGCCGAGTGCGATTGACAGCGTAGAATGAAGG DNA 2: CCTTCATTCTACGCTGTCAATCGCACTCGGCATTCACTGACCTCTCTTACCTTGGACGGC	3.25 PBM z-score against 500 random probes		binding signal (RARb:RXRa): 3.07 PBM z-score against 500 random probes
NRC3_wobSeed85_DR3_G24C_o1 (dsDNA) DNA 1: GCCGTCCAAGGTCAGAGAGGTCACTGAATGCCGAGTGCGATTGACAGCGTAGAATGAAGG DNA 2: CCTTCATTCTACGCTGTCAATCGCACTCGGCATTCAGTGACCTCTCTGACCTTGGACGGC	6.76 PBM z-score against 500 random probes	7.9 PBM z-score against 500 random probes	
NRC3_random_hg19_147_o1 (dsDNA) DNA 1: GCCTCTTGCTCCCTATTGGTCTATTGCACTGCAGAGGCGATTGACAGCGTAGAATGAAGG DNA 2: CCTTCATTCTACGCTGTCAATCGCCTCTGCAGTGCAATAGACCAATAGGGAGCAAGAGGC	0.25 PBM z-score against 500 random probes		binding signal (PPARa:RXRa): 0.48 PBM z-score against 500 random probes
NRC3_random_hg19_102_o1 (dsDNA) DNA 1: GCCAGATGAAATGACCAGGCTGTTACCAGGGTCTATGCGATTGACAGCGTAGAATGAAGG DNA 2: CCTTCATTCTACGCTGTCAATCGCATAGACCCTGGTAACAGCCTGGTCATTTCATCTGGC	-0.16 PBM z-score against 500 random probes		binding signal (RXRa): 0.48 PBM z-score against 500 random probes; binding signal (RARg:RXRa): 0.17 PBM z-score against 500 random probes
NRC3_random_hg19_340_o1 (dsDNA) DNA 1: GCGCCTTGTCCTTCTGCAGCTGCTGGTGCAGCCCAGGCGATTGACAGCGTAGAATGAAGG DNA 2: CCTTCATTCTACGCTGTCAATCGCCTGGGCTGCACCAGCAGCTGCAGAAGGACAAGGCGC	-0.91 PBM z-score against 500 random probes		binding signal (RARg:RXRa): -0.68 PBM z-score against 500 random probes
NRC3_wobSeed109_DR4_G21T_o1 (dsDNA) DNA 1: GCCGTCCAAGGTCATAGGAGTTCAGTGAAGACAGATGCGATTGACAGCGTAGAATGAAGG DNA 2: CCTTCATTCTACGCTGTCAATCGCATCTGTCTTCACTGAACTCCTATGACCTTGGACGGC	7.41 PBM z-score against 500 random probes	7.28 PBM z-score against 500 random probes	
NRC3_wobSeed109_DR4_G17C_o1 (dsDNA) DNA 1: GCCGTCCAAGGTCATACGAGGTCAGTGAAGACAGATGCGATTGACAGCGTAGAATGAAGG DNA 2: CCTTCATTCTACGCTGTCAATCGCATCTGTCTTCACTGACCTCGTATGACCTTGGACGGC	7.4 PBM z-score against 500 random probes	7.31 PBM z-score against 500 random probes	
NRC3_wobSeed137_DR5_C19G_o1 (dsDNA) DNA 1: GCATATGTAGGTTACATCGGGGTCATTCAGGCTATGGCGATTGACAGCGTAGAATGAAGG DNA 2: CCTTCATTCTACGCTGTCAATCGCCATAGCCTGAATGACCCCGATGTAACCTACATATGC	6.55 PBM z-score against 500 random probes	6.54 PBM z-score against 500 random probes	
NRC3_wobSeed137_DR5_C18G_o1 (dsDNA) DNA 1: GCATATGTAGGTTACATGCGGGTCATTCAGGCTATGGCGATTGACAGCGTAGAATGAAGG DNA 2: CCTTCATTCTACGCTGTCAATCGCCATAGCCTGAATGACCCGCATGTAACCTACATATGC	3.01 PBM z-score against 500 random probes		binding signal (RARg:RXRa): 3.89 PBM z-score against 500 random probes
NRC3_wobSeed89_DR3_G19A_o1 (dsDNA) DNA 1: GCCTATGTAGGTTAAGGGAGTCATTCAGTTTGAAAGGCGATTGACAGCGTAGAATGAAGG DNA 2: CCTTCATTCTACGCTGTCAATCGCCTTTCAAACTGAATGACTCCCTTAACCTACATAGGC	0.45 PBM z-score against 500 random probes		binding signal (FXR:RXRa): 0.48 PBM z-score against 500 random probes; binding signal (RARg:RXRa): 0.49 PBM z-score against 500 random probes
NRC3_wobSeed89_DR3_G16C_o1 (dsDNA) DNA 1: GCCTATGTAGGTTAACGGGGTCATTCAGTTTGAAAGGCGATTGACAGCGTAGAATGAAGG DNA 2: CCTTCATTCTACGCTGTCAATCGCCTTTCAAACTGAATGACCCCGTTAACCTACATAGGC	6.67 PBM z-score against 500 random probes	8.07 PBM z-score against 500 random probes	
NRC3_random_hg19_9_o1 (dsDNA) DNA 1: GCAGGACTCCTCGTGAAGAGCAGGTGGGAGCGAGTCGCGATTGACAGCGTAGAATGAAGG DNA 2: CCTTCATTCTACGCTGTCAATCGCGACTCGCTCCCACCTGCTCTTCACGAGGAGTCCTGC	-0.76 PBM z-score against 500 random probes		binding signal (RARg:RXRa): -0.88 PBM z-score against 500 random probes
NRC3_wobSeed37_DR1_A8G_o1 (dsDNA) DNA 1: GCCGTCCGAGGTCAAAGGTCAGTGAAGAGATGACGGGCGATTGACAGCGTAGAATGAAGG DNA 2: CCTTCATTCTACGCTGTCAATCGCCCGTCATCTCTTCACTGACCTTTGACCTCGGACGGC	7.4 PBM z-score against 500 random probes	7.2 PBM z-score against 500 random probes	
NRC3_wobSeed121_DR5_A19G_o1 (dsDNA) DNA 1: GCCAAACTAGGTCACCGGGAGGTCAAAGTCCGCATGGCGATTGACAGCGTAGAATGAAGG DNA 2: CCTTCATTCTACGCTGTCAATCGCCATGCGGACTTTGACCTCCCGGTGACCTAGTTTGGC	6.61 PBM z-score against 500 random probes	6.81 PBM z-score against 500 random probes	
NRC3_random_hg19_344_o1 (dsDNA) DNA 1: GCCGGAAGAGAATTCTTGCCTGCCCACTGGTAGAATGCGATTGACAGCGTAGAATGAAGG DNA 2: CCTTCATTCTACGCTGTCAATCGCATTCTACCAGTGGGCAGGCAAGAATTCTCTTCCGGC	-0.71 PBM z-score against 500 random probes		binding signal (RXRa): -0.83 PBM z-score against 500 random probes
